{"source": "the nanobody polyreactivity screen of Harvey et al. (2022)", "data": [{"experiment": "yeast display, Sf9 membrane polyspecificity reagent, FACS + sequencing; frameworks hold sequencing errors", "summary_of_the_method": "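Polyreactivity labels are assigned by the sorting gate from which each nanobody was recovered. The gates were low and high (top ~1%), set on anti-HA fluorescence for expression and streptavidin fluorescence for reagent binding. Before sorting, galactose-induced (36–48 hours) yeast display cells were stained for 1 hour at 4 °C with 10% biotinylated, detergent-solubilized Sf9 membrane reagent.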", "values": [{"sequence": "LVQLVESGGGLVQAGGSLRLSCAASGIIFRFYDMGWYRQAPGKERELVAAISWDGTSTYYADSVKGRFTISRDNAKNTVSLQMNSQKPEDTAVYYCAADWVGSPWWYLWYGYWGQGTQVTVSS", "polyreactivity (PSR sort gate)": "high polyreactivity"}, {"sequence": "LVQLVESGGRLVQAGGSLRLTCAATGSIFDGNAKGWYRQAPGKDRELVADISRGGSTYYADSVKGRFTISSDNAKNTVYFQLNSLKPEDTAVYDCTVEFFFWPYEYGYWGQGTQVTVSS", "polyreactivity (PSR sort gate)": "low polyreactivity"}, {"sequence": "LVQLVESGVGLVHAGRSLRLSCAASGSIFPYYTMGWYRPAPGKERELVAAISGSGGSTYYADSVKGRFTISRDNAKNTVYLQMNSLKPEYTAVYYCAAYRRTWFDYWGQGTQVTVSS", "polyreactivity (PSR sort gate)": "high polyreactivity"}, {"sequence": "LVQQVESGGGLVQAVGTLRISCAASGQILYSYAMGWYRQAPGKERELVAAITGGVSTNYADSVKGRFTISRDNAKNTVYLQMNSLKPEDTAVYYCNVELWEYSYIDEYWGQGTQLTVSS", "polyreactivity (PSR sort gate)": "low polyreactivity"}, {"sequence": "PDQLVESGGGLVQAGGSLRLSCAASGLNFYDNMGWYIQATGKERELVSAISSSGGSTSYADSVKGRFTISRDNAKNTVYLQMNSLKPEDTAVYYCAADSSPAYLGFVGFDYWGHGTQVTVSS", "polyreactivity (PSR sort gate)": "low polyreactivity"}, {"sequence": "PLQLVESGGGLVQAGGSLRLSCAASGRTFRATTMGWYRQAPGKERELVAAISHSGGSTYYADSVKGRFTISRDNAKNTVYLQMYSLKPEDTAVYYCATDGGSYSWASPRVDYWGQGTQVTVSS", "polyreactivity (PSR sort gate)": "low polyreactivity"}, {"sequence": "PVQLVDSGGGLVQAGGSLRLSCAASGSIFYRNALGWYRQAPGKERELVAAISGRGGSTNYADSVKGRFTISRDNAKNTVYLQMNSLKPEDTAVYYCNRYGVANILVRGGYWGQGTQVTVSA", "polyreactivity (PSR sort gate)": "high polyreactivity"}, {"sequence": "PVQLVESGGGLVQAGGPLRLSCAASGFNITSYVMGWYRPAPGKERELVAAISAGGGSTYYADSVKGRFTISRDNAKNTVYLQMNSLIPDDTAVYYCAADPLYEQIYYAIYHYNDGYDYWGQGTQVTVSS", "polyreactivity (PSR sort gate)": "high polyreactivity"}, {"sequence": "PVQLVESGGGLVQAGGSHRLSCAASGSIFYFNAMGWYRQAPGKERELVAVITDRGSTYYSDSVKGRFTISRDNAKNTVYLQMNSLKPEDTAVYYCAAQTPGVYLRQIGGYYYWGQGTQVTVSS", "polyreactivity (PSR sort gate)": "low polyreactivity"}, {"sequence": "PVQLVESGGGLVQAGGSLPLSCAASGRTFPFNAMRWYRQAPGKERELVATINYRGGSTYYADSVKGRFTISRDNAKNTVYLQMNSLKPEDTAVYYCAAGKIGRYHYDYWGQGTQVTVSS", "polyreactivity (PSR sort gate)": "high polyreactivity"}, {"sequence": "PVQLVESGGGLVQAGGSLRLSCAACGGIFPGNAMGWYRQAPGKVRELVATISYSGGSTYYADSVKGRLTISRDNAKNTVYLQMNSLKPEATAVYYCAARGYKPTRSRRTEYGYWGQGTQVTVSS", "polyreactivity (PSR sort gate)": "high polyreactivity"}, {"sequence": "PVQLVESGGGLVQAGGSLRLSCAASGFTFANYAMGWYRQAPGKERELVAAISRGGTSTYYADSVKGRFTISRDNAKNTVYFQMNSLKPEDTEVYFCNAVKVGYSLYDYWGQGTQVTVSS", "polyreactivity (PSR sort gate)": "high polyreactivity"}, {"sequence": "PVQLVESGGGLVQAGGSLRLSCAASGITIYYYGMGWYRQPPGKERELVAAITTGVNTNYADSVKGRFTISRDNAKITVYLQMNSLKPEDTAVYYCAAEYRIPYFFTYGYWGQGTQVTVSS", "polyreactivity (PSR sort gate)": "high polyreactivity"}, {"sequence": "PVQLVESGGGLVQAGGSLRLSCAASGRIFSSYTMGWNIQAPGKERELVAAISWRGGSTYYADSVKGRFTISRDNAKNTVYLLMNSLKPEDTAVYYCAADSRSHPGDYWGHGTQVTVSS", "polyreactivity (PSR sort gate)": "low polyreactivity"}, {"sequence": "PVQLVESGGGLVQAGGSLRLSCAASGSTFAYNAMGWYRQAPGKERELVAAISWSGGTTYYADSVKGRFTISPDNAKNPVYLQMNSLKPEDTAVYYCAADVYLNRRQRMYYWGQGTQVTVSS", "polyreactivity (PSR sort gate)": "high polyreactivity"}, {"sequence": "PVQLVESGGGLVQAGGTLRLSCDATGITFKLNAMGWYRQAPGKERELVAAITSTGGSTYYADSVKGRFTISRDNAKNTVYLQMNSLNPEDTAVYYCAADRYSYIFYYYWSYDYWGQCTQVTVSS", "polyreactivity (PSR sort gate)": "high polyreactivity"}, {"sequence": "PVQLVESGGGVVQAGGSLRVSCAASGSIFYVYAMGWYRQAGGKEWELVAAINPSGGSTFYADSVKGRFTISRDNAKTTDYLQMNSLTPEHTAVYYCAAERYRYRSTDTMGYWGQGTQVTVSS", "polyreactivity (PSR sort gate)": "low polyreactivity"}, {"sequence": "PVQLVESGGVLVQAGGILRLSCAASGFTFYLYGMGWYRRAPGKERELVAAISRSGGSTYYADSVKGRFTISRDNAKNTVYLQMNSLKPEDPAVYACAVDKQGSRRRIISDEMYYWGQGTQVTVSS", "polyreactivity (PSR sort gate)": "high polyreactivity"}, {"sequence": "PVQLVESGGVLVQAGGSLRLSCAASGFTFWLYAMGWYRQAPGNEREFVAAISPSGGSTYADSVKGRFTLSRDNAKNTVYLPMNRLKPEDTAVYYCNDGYLLYYDYHLFYWGQGTQLTVSS", "polyreactivity (PSR sort gate)": "low polyreactivity"}, {"sequence": "PVQLVETGGGLVQAGGSLRLSCAASGRTFYRYAMGWYRQAPGKERELVAAITRRVDSTSYADSVKGRFTISRDNAKNTVYLQMNSLKPEDTAVYYCATLVQGSVYGVYGGGYWGQGTQVTVSS", "polyreactivity (PSR sort gate)": "low polyreactivity"}, {"sequence": "QAQLVESGGGLVQAGGSLRLSSAASGFIFWGNAMGWYRQAPGKERELVAGIRSLGGTTSYADSVKGRFTISRDNAKNTVYLQMNSLKPEDTAVYYCAAGYGAEFDYWGQGTQVTVSS", "polyreactivity (PSR sort gate)": "low polyreactivity"}, {"sequence": "QDHLVESGEGLVQAGGSLRLSCAASGFVFAYYTMGWYRTAPGKERELVAAISRGGGRTYYADSVKGRFTISRDNAKNTVYLQMNSLKPEDTAVYYCAARNGPSIKFAVTGMDYWGQGTQVTVSS", "polyreactivity (PSR sort gate)": "high polyreactivity"}, {"sequence": "QDHLVESGGGLVQAGGSLRLSCAASGSPFPSYAMGWYRQAPGKERELVAAINSGGGTTYADSVQGRFTISRDKAKNTVYLQMNSLKPEDTAVYYCARGPLSWHSYVEAEYGYWGQGTQVTVSW", "polyreactivity (PSR sort gate)": "low polyreactivity"}, {"sequence": "QDHLVESVGGLVQAGRSLRLTCAASGGTFYYKTMGWYRQAPGKESQLVAAITSGTSTNYADSVKGRFTISRDNAKNTVYLQMNSLKPEDTAVYYCAADPDADDPRRGYDYWGQGTQVTVSS", "polyreactivity (PSR sort gate)": "low polyreactivity"}, {"sequence": "QDKLVESAGGLVQAGGSLRLSCADSGSIFPFNAMALNRQATGKVREMVASITSGGTTYYADSLKGRFTISRDNAKNTVYLQMNSLKPEDTAVYYFAGDWVWRVLNSYGVRYDYWGQGTQVTVSS", "polyreactivity (PSR sort gate)": "low polyreactivity"}, {"sequence": "QDKLVESGGGLVQAGASLRLTCAASGLIIYRNAMGWYIQAPGKERELVATISRRGGRTYYADSVKGRFTISRDNAKNNVYLQMNSLKPEDTAVYYCIADDYRSRGGYDSWGQGTQVTVSS", "polyreactivity (PSR sort gate)": "high polyreactivity"}, {"sequence": "QDKLVESGGGLVQAGGSLRLSCAASGSILGGYAMGWNRPAPGKAREFVAAISRRGASTFYADSVKGRFTISRDNAKNTVYLQMNCLKPEDTAVYYCNARAYGRIDGHSATFGYWGQGTQVTVSS", "polyreactivity (PSR sort gate)": "high polyreactivity"}, {"sequence": "QDKLVESGGGLVQAGGSLRLSCAPSGSIFYGYAMGWYRQAPGKESELVAAMSSTGGTTYYADSVKGRFTISRDNAKNTVYLQMNSQKPEDTAVYYCAKRGRTWRYPFDYWGQGTQVTVSS", "polyreactivity (PSR sort gate)": "high polyreactivity"}, {"sequence": "QDQHVESGGGLVQAGGSLRLSCAASGFTFPLKAMGWSRQAPGKERELVAVINYSDGSTYYADSVKGRFSISRDNAKNTVYLQMNSLTPEDTAVYYCAARYYTTYYWGQGTQVTVSS", "polyreactivity (PSR sort gate)": "high polyreactivity"}, {"sequence": "QDQHVESGGGLVQAGGSLRLSCAASGIIFWWYDMGWFRQAPGKERELVAAISTGSRTNYADSVKGRFTISRDNAKNTVYLQMNSLKPEDTAVYYCAGEWVGFSGYYGSGYEMDYWGQGTQVTVSS", "polyreactivity (PSR sort gate)": "low polyreactivity"}, {"sequence": "QDQHVESGGGLVQAGGSLRLSCAASGIIFYRYAMGWYRQAPGKERELVAAIRRSGGSTFYADSVKGRFTISRDNAKNTVYLQMNCLKPVDTAVYYCAAVYTGDPYGYWGQGTQVTVSS", "polyreactivity (PSR sort gate)": "high polyreactivity"}, {"sequence": "QDQHVESGGGLVQAGGSLRLSCAASGITFNKYAMGWYRQAPGKERELVAAISFSGGSTYYADSVKGRFTISRDNAKNTVYLQMNSLKPEVTAVYYCAAVWGYVIWVDTAVYREYDYWGQGTQVTVSS", "polyreactivity (PSR sort gate)": "high polyreactivity"}, {"sequence": "QDQHVESGGGLVQAGGSLRLSCAASGSNFVINAMGWYRQAPGKEREWVAAITSSGGSTYYADSVKGRFTISRDNAKNTVYLQMNSLKPEDTAVYYCAAYVRTAFGRMNYWGQGTLVTVSS", "polyreactivity (PSR sort gate)": "high polyreactivity"}, {"sequence": "QDQHVESGGGLVQAGGSLRLSCAASGSTFKIYAMGWYRQPHGKESELVARITGRGGSTYYADSVKGRFTISRDNAKNTVYLQMNSLKPEDTAVYYCAARVYTYYDDLHKRYYWGQGTQVTVSS", "polyreactivity (PSR sort gate)": "high polyreactivity"}, {"sequence": "QDQHVESGGGLVQAGGSLRLSCAASGSTFPYYAMGWYRQAPGKERELVAAITSSGGSTYYADSVKGRFTISRVNAKNTVYLQMNSLKPEDTAVYYCANGYGPYRQMNYWGQGTQVTVSS", "polyreactivity (PSR sort gate)": "low polyreactivity"}, {"sequence": "QDQHVESGGGLVQAGGSLRLSCDASGFIFPYYVMGWYRQAPGKERELVAGISSGGRTNYADSVKGRFTISRDNAKNTVYLQMISLKPEDTAVYYCNDRWYRYPPRVRLYYWGQGTQVTVSS", "polyreactivity (PSR sort gate)": "high polyreactivity"}, {"sequence": "QDQHVESGGGLVQAGGSLRLSCDASGFIFTYYAMGWYRQAPGKERELVAAISRSGGNTYYADSVKGRFTISRDNAKNTVYLQMNSLIPEDTAVYYCAAETRRGGYWGYEYYYWGQGTQVTVSS", "polyreactivity (PSR sort gate)": "high polyreactivity"}, {"sequence": "QDQHVESGGGLVQAVGSLRLSCAASGRIIVDYAMGWYRQAPGKERDLVATITNGGSTNYADSVKGRFTISRDNAKNTVYLQMNSLKPEDTAVYYCAVDYLLDYYSYIEDYWGQGTQVTVSS", "polyreactivity (PSR sort gate)": "low polyreactivity"}, {"sequence": "QDQIGESGGGLVQAGGSLSLSCAASGTTIVNNAMGRNRQARWKERELVAAITQRGGRSSYADSVNGRFTISRDNAKNTVYLQMNSLKPEDTAVYYCATVATCRHKGKYNYLGQGTQVTVSS", "polyreactivity (PSR sort gate)": "low polyreactivity"}, {"sequence": "QDQIVESGGGLVQAGGSLRISCAPSGSILGYYGMGWYRQAPGKERELVAAISSSGNTNYADSVKGRFTISRDNAKNTVYFQMNSLKPDDTAVYYCAASFQYVAYFLYVYWGQGTQVTVSS", "polyreactivity (PSR sort gate)": "low polyreactivity"}, {"sequence": "QDQIVESGGGVVQAGGSLRLSCASSGRIFYDYLGWNRQAPGKETELDADISSGGSTHYADSVKGRFTISRDNAKNTVYLQMNSLKGEDTAVYYCIAVLVLSYDKDWRLIEMDYWGQGTHVTVSS", "polyreactivity (PSR sort gate)": "low polyreactivity"}, {"sequence": "QDQLEESGGGLSQAGGSLRLSCAASGINFPSYTMGWSRQATGKERELVAAIDSGGSTYYADSVKGRFTISRDNAKNSVYLQMNSLIPEDTAVYYCAAEPDTYWYTYDYWGQGTQVSVSS", "polyreactivity (PSR sort gate)": "low polyreactivity"}, {"sequence": "QDQLEESGGGLVQAGGSLRLSCAASGSTCVKYARGWYRPAPGKERELVAAISTRGGTTYYADSVKGRFTISRDNAKNTVYLQMNSLKPEDTAVYYCATGSYSRGVAYGYWGQGTQVTVSS", "polyreactivity (PSR sort gate)": "high polyreactivity"}]}]}
